Experiment [1] deals with T1, human MARCO (form in the assay not stated) (human, UniProt Q9UEW3 79-520, limits assumed).
T1 sequence: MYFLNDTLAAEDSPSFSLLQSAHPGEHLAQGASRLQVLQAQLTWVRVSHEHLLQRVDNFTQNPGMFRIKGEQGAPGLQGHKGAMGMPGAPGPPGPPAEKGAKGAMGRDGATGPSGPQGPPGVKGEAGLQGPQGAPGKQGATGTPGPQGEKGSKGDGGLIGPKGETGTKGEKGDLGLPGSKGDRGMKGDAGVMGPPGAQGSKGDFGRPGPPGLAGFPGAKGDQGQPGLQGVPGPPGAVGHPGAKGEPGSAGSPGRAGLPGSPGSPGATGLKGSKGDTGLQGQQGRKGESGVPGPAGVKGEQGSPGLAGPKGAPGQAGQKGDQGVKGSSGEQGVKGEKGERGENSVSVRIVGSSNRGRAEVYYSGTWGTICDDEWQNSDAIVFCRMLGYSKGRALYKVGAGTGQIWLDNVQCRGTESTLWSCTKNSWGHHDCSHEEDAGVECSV
Description: ELISA, FACS and IHC screening. Background: ELISA stands for enzyme-linked immunosorbent assay.

Experiment [2] deals with T2, collagen 17A1 (COL17A1) expressed on 721.221 cells (UniProt Q9UMD9 1-1497, limits assumed).
T2 construct: whole, on cells
T2 sequence (looked up): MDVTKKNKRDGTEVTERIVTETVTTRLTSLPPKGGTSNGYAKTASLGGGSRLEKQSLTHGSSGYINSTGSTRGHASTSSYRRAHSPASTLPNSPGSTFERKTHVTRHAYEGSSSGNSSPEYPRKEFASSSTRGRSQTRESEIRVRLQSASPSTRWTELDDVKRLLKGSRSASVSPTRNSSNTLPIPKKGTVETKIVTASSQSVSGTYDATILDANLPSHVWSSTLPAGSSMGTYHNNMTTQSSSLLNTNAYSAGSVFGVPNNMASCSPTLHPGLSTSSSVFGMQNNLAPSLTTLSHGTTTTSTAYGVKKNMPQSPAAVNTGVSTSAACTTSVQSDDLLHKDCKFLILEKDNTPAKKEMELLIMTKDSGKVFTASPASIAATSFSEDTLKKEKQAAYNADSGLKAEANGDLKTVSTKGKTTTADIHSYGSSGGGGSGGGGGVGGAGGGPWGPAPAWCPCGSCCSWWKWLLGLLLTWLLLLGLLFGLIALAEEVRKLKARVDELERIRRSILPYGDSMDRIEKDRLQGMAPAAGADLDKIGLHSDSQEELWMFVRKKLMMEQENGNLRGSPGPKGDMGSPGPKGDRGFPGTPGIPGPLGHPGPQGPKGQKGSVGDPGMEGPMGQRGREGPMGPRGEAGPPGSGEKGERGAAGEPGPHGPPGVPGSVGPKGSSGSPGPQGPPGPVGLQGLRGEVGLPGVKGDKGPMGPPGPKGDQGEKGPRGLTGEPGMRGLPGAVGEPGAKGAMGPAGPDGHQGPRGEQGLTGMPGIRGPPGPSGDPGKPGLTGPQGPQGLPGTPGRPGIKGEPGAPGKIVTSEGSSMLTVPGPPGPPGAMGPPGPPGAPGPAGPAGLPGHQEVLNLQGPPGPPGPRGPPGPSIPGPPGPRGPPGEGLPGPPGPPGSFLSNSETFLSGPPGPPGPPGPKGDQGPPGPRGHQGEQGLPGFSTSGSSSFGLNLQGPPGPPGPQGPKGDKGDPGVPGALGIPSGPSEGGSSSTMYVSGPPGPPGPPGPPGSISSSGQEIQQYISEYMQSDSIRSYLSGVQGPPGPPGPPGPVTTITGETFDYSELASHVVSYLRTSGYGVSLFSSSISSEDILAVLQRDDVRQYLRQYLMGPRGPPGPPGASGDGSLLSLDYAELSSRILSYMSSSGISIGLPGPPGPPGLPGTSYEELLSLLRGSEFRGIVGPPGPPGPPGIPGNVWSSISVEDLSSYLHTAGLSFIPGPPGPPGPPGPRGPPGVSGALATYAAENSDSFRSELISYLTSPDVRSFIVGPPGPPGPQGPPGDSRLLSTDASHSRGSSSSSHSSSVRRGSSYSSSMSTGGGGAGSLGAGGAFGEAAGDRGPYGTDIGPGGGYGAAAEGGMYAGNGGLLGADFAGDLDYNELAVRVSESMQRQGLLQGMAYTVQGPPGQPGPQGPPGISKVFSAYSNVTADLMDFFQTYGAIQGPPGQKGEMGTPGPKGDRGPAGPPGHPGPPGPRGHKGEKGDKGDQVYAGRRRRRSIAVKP
Nature of the experiment: IHC on 721.221 stable cell lines; '-' = no detectable signal.

Experiment [3] deals with T3, COL13A1 expressed on transfected 293T cells (UniProt Q5TAT6 1-717, limits assumed).
T3 construct: whole, on cells
Nature of the experiment: IHC on 293T-transfected cell pellets; '-' = no detectable signal.

Experiment [4] concerns the target T4, MSR1 expressed on transfected 293T cells (UniProt P21757 1-451, limits assumed).
T4 construct: whole, on cells
T4 sequence (looked up): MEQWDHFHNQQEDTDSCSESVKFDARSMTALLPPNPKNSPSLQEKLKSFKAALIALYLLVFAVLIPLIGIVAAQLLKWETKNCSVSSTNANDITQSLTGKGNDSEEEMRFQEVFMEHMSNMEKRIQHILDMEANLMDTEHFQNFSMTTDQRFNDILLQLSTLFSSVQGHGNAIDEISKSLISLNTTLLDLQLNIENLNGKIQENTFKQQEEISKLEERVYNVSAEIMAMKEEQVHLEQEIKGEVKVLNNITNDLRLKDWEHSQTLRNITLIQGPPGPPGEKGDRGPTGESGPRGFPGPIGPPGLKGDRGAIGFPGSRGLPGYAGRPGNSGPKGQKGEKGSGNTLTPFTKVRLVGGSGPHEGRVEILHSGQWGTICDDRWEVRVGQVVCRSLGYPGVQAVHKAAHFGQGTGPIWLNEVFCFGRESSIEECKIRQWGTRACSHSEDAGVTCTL
Description: flow cytometry on 293T-MSR1 cells, Alexa647 anti-mouse IgG secondary. In general terms: A flow cytometer gives signals particle by particle.

Experiment [5] concerns the target T5, CD163L expressed on transfected 293T cells (UniProt Q9NR16 41-1453).
T5 construct: whole, on cells
Description: flow cytometry on 293T-CD163L cells, Alexa647 anti-mouse IgG secondary.

Experiment [6] deals with T6, SCARA5 expressed on transfected 293T cells (UniProt Q6ZMJ2 1-495, limits assumed).
T6 construct: whole, on cells
Description: flow cytometry on 293T-SCARA5 cells, Alexa647 anti-mouse IgG secondary.

The target in experiment [7] is T7, human MARCO expressed on cells (721.221-MARCO, 293T-MARCO) (human, UniProt Q9UEW3 1-520).
T7 construct: also called 721.221 cells expressing MARCO
T7 sequence: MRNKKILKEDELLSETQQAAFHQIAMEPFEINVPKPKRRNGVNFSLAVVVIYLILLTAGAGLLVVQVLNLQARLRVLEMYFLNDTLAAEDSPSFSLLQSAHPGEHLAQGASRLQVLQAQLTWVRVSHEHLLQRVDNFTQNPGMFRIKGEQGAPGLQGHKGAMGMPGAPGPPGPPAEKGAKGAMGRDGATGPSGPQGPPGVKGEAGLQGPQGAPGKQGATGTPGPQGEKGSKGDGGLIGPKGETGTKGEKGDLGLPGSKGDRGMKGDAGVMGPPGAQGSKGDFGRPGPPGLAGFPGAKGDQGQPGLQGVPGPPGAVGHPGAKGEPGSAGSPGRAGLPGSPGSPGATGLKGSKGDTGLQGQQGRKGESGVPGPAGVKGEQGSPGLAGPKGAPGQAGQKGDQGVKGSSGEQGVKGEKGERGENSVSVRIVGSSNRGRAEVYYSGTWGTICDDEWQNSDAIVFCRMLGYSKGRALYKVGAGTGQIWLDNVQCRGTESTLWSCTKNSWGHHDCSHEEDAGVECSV
Nature of the experiment: flow cytometry, antibody at 2.5 µg/mL, Alexa647 anti-mouse IgG secondary.

T5 sequence (Q9NR16 41-1453): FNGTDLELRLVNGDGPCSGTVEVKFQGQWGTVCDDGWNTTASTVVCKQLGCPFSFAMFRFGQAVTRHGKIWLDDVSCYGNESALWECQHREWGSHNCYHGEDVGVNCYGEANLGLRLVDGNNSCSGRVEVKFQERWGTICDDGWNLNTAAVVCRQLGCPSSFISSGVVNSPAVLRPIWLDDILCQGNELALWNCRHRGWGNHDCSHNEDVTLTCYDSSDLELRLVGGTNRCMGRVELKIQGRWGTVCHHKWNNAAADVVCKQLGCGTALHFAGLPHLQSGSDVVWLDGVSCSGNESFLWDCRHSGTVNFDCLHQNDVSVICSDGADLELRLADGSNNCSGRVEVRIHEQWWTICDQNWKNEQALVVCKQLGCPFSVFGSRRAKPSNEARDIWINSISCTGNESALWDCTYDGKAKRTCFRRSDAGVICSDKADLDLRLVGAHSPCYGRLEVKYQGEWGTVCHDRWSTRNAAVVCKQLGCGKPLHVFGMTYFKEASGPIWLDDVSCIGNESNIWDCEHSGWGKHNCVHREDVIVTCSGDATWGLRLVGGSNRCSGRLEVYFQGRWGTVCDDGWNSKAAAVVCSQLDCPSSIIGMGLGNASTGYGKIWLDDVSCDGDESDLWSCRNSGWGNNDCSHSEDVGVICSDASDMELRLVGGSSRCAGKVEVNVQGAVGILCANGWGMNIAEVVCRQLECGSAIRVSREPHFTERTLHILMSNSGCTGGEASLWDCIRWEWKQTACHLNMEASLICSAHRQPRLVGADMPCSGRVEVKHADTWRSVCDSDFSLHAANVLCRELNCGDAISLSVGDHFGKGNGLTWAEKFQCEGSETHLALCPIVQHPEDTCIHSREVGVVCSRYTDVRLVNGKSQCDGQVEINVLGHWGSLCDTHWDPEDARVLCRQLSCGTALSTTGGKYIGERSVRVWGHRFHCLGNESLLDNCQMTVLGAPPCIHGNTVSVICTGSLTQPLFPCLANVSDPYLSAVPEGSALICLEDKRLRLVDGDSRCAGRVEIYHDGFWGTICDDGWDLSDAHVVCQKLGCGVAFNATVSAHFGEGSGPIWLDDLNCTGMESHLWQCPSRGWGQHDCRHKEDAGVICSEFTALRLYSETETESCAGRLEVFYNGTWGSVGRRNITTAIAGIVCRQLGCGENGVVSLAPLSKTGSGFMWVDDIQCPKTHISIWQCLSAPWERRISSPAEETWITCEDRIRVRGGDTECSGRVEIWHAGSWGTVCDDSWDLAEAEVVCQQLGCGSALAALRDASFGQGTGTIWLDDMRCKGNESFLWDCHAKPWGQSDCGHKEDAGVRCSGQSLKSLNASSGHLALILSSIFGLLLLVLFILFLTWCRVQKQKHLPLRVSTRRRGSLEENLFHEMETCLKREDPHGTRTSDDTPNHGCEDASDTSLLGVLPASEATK
T3 sequence (Q5TAT6 whole entry): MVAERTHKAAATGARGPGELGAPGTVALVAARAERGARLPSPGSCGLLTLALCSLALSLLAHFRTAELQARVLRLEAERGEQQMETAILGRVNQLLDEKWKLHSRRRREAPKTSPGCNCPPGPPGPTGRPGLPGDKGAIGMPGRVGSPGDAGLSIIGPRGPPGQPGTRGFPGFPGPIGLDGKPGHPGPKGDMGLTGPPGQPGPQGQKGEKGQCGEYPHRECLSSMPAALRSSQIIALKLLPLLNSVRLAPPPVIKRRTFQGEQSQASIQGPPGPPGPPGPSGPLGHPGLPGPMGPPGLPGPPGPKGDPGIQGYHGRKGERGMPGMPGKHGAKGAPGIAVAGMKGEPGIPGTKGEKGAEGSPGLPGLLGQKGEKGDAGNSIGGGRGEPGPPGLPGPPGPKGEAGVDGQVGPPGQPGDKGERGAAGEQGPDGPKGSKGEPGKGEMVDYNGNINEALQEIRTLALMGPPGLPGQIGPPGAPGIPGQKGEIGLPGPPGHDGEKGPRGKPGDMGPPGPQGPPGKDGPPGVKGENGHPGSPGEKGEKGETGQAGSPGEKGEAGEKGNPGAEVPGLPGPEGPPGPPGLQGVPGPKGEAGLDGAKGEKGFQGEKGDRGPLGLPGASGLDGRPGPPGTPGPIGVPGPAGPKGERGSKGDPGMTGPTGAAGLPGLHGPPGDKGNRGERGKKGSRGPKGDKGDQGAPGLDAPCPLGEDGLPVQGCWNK
T6 sequence (Q6ZMJ2 whole entry): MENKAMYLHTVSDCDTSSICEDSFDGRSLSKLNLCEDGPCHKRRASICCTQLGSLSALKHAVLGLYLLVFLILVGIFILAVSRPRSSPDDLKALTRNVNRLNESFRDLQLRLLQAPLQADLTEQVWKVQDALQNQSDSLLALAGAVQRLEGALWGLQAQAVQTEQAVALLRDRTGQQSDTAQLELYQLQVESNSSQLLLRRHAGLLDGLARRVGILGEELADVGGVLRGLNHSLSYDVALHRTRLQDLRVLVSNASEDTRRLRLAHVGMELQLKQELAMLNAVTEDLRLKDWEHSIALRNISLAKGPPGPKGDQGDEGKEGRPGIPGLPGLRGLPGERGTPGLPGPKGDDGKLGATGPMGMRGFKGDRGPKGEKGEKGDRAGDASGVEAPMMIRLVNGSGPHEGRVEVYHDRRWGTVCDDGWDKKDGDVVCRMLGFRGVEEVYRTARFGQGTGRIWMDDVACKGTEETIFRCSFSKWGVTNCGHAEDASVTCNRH

B1: anti-MARCO antibody 10G4 (antibody, mouse IgG2a, kappa)
heavy: QVQLKESGPGLVAPSQSLSITCTVSGFSLSSYPISWVRQPPGKGLEWLGIIWTGGGTNYNSALKSRLSISKDNSKSQVFLKMNSLQTDDTARYYCASQNWDVNSALDYWGQGTSVTVSSAKTTAPSVYPLAPVCGDTTGSSVTLGCLVKGYFPEPVTLTWNSGSLSSGVHTFPAVLQSDLYTLSSSVTVTSSTWPSQSITCNVAHPASSTKVDKKIEPRGPTIKPCPPCKCPAPNAAGGPSVFIFPPKIKDVLMISLSPIVTCVVVDVSEDDPDVQISWFVNNVEVHTAQTQTHREDYNSTLRVVSALPIQHQDWMSGKEFKCKVNNKDLGAPIERTISKPKGSVRAPQVYVLPPPEEEMTKKQVTLTCMVTDFMPEDIYVEWTNNGKTELNYKNTEPVLDSDGSYFMYSKLRVEKKNWVERNSYSCSVVHEGLHNHHTTKSFSRTPGK
light: DIQMTQSPASLSVSVGETVTITCRASENIYSNLAWYQQKQGKSPQLLVYTATNLADGVPSRFSGSGSGTQYSLRINRLQSEDFGNYYCQHFWNAPWTFGGGTKLEIKRADAAPTVSIFPPSSEQLTSGGASVVCFLNNFYPKDINVKWKIDGSERQNGVLNSWTDQDSKDSTYSMSSTLTLTKDEYERHNSYTCEATHKTSTSPIVKSFNRNEC
notes: detected with anti-mouse IgG; copies: 2 + 2
As to B1, the binding result is recorded as “binds” in experiment [1]; “no binding” in experiment [2]; “no binding” in experiment [3]; “no binding (tested: 2.5 µg/mL)” in experiment [4]; “no binding (tested: 2.5 µg/mL)” in experiment [5]; “no binding (tested: 2.5 µg/mL)” in experiment [6]. For the same molecule, the binding result in experiment [7] is on record as “binds”.

B2: anti-MARCO antibody 6D8 (antibody, mouse IgG2a, kappa)
heavy: QVQLKESGPGLVAPSQSLSIACTVSGFSLTNYAISWVRQPPGKGLEWLGVIWTGGGTNYNSTLKSRLSISKDNSKSQVFLKMNSLQTDDTARYNCARNSGDWYFDVWGPGTTVTVSSAKTTAPSVYPLAPVCGDTTGSSVTLGCLVKGYFPEPVTLTWNSGSLSSGVHTFPAVLQSDLYTLSSSVTVTSSTWPSQSITCNVAHPASSTKVDKKIEPRGPTIKPCPPCKCPAPNAAGGPSVFIFPPKIKDVLMISLSPIVTCVVVDVSEDDPDVQISWFVNNVEVHTAQTQTHREDYNSTLRVVSALPIQHQDWMSGKEFKCKVNNKDLGAPIERTISKPKGSVRAPQVYVLPPPEEEMTKKQVTLTCMVTDFMPEDIYVEWTNNGKTELNYKNTEPVLDSDGSYFMYSKLRVEKKNWVERNSYSCSVVHEGLHNHHTTKSFSRTPGK
light: DIVMSQSPSSLAVSVGEKVTMSCKSSQSLLYSSNQKNYLAWYQQKPGQSPHLLIYWASTRESGVPDRFIGSGSGTDFTLTISSVKAEDLAVYYCQQYYDYPPTFGSGTKLEIKRADAAPTVSIFPPSSEQLTSGGASVVCFLNNFYPKDINVKWKIDGSERQNGVLNSWTDQDSKDSTYSMSSTLTLTKDEYERHNSYTCEATHKTSTSPIVKSFNRNEC
notes: as for B1
Regarding B2, the binding result in experiment [1] is given as “binds”; in experiment [2], “no binding”; in experiment [3], “no binding”; in experiment [4], “no binding (tested: 2.5 µg/mL)”; in experiment [5] it was “no binding (tested: 2.5 µg/mL)”; in experiment [6] it was “no binding (tested: 2.5 µg/mL)”. The binding result in experiment [7] is given as “binds”.

B3: anti-MARCO antibody 15A3 (antibody, mouse IgG2a, kappa)
heavy: EIQLQQSGPELVKPGASVKVSCKASGYSFTDYNMYWVKQSHGKSLEWIGYIDPYNGGTSYNQKFKGKATLTVDKSSSTAFMHLNSLTSEDSAVYYCARLRSPYDYDRGDYVMDYWGQGTSVTVSSAKTTAPSVYPLAPVCGDTTGSSVTLGCLVKGYFPEPVTLTWNSGSLSSGVHTFPAVLQSDLYTLSSSVTVTSSTWPSQSITCNVAHPASSTKVDKKIEPRGPTIKPCPPCKCPAPNAAGGPSVFIFPPKIKDVLMISLSPIVTCVVVDVSEDDPDVQISWFVNNVEVHTAQTQTHREDYNSTLRVVSALPIQHQDWMSGKEFKCKVNNKDLGAPIERTISKPKGSVRAPQVYVLPPPEEEMTKKQVTLTCMVTDFMPEDIYVEWTNNGKTELNYKNTEPVLDSDGSYFMYSKLRVEKKNWVERNSYSCSVVHEGLHNHHTTKSFSRTPGK
light: DIVLTQSPASLAVSLGQRATISCRASKSVSTSGYTYMHWYQQKPGQPPKLLIYLASNLESGVPARFSGSGSGTDFTLNIHPVEEEDAATYYCQHSRELPLTFGAGTKLELKRADAAPTVSIFPPSSEQLTSGGASVVCFLNNFYPKDINVKWKIDGSERQNGVLNSWTDQDSKDSTYSMSSTLTLTKDEYERHNSYTCEATHKTSTSPIVKSFNRNEC
notes: as for B1
Consider B3, for which the binding result is listed as “binds” in experiment [1]; “no binding” in experiment [2]; “no binding” in experiment [3]; “no binding (tested: 2.5 µg/mL)” in experiment [4]; “no binding (tested: 2.5 µg/mL)” in experiment [5]; “no binding (tested: 2.5 µg/mL)” in experiment [6]. The binding result in experiment [7] is “binds”.
